Data as given in patent publication US12161729B2, “Methods and compositions for visualizing a ureter in a surgical procedure” (ALUME BIOSCIENCES, INC., priority 2021, dated 2024).
Where two headings read alike, the source gives them in different places. Residues, ends and D or L forms follow the SMILES beside them. *: point of attachment. 5FAM = O=C1OC2(c3ccc(O)cc3Oc3cc(O)ccc32)c2ccc(C(=O)*)cc21; FAM = carboxyfluorescein

Key:
ureter [1] = assay: Time course of ureter illumination in rodent models; format: in vivo; details: rodent model
Experimental: (§1) A rodent model was to use to evaluate the dynamics of fluorescent visualization of 5-FAM-QVPWEEPYYVVKKSSGG-NH2 (HNP401-N-2 with GG linker; SEQ ID NO:747) following intravenous administration. The conjugate was administered in a wide range of amounts and fluorescence was detected using a customized microscope. […] Rather it reflects fluorescence of urine flowing down the ureter from the kidney to the bladder.
These include molecules consisting of related HNP401 peptides conjugated to FAM, as well as molecules consisting of related HNP401 peptides conjugated to other fluorescent moieties. In addition, the studies presented here allow concurrent visualization of nerves in conjunction with ureters.

[2] = Bioanalysis of fluorescent conjugate in the urine of surgery patients (LC-MS/MS); format: in vivo, human; details: for Test Drug (ng/mL) in urine / level at 30 min after infusion: 500 mg intravenous; for level at 30 min after infusion: human, urine, iv, 500 mg, read-out: Test Drug (ng/mL) in urine
Experimental: Urine samples were collected 30 minutes before intravenous administration of 500 mg of parent test drug (corresponding to the fluorescent-conjugated peptide, SEQ ID NO:747), 30 minutes after infusion prior to head and neck surgery, and 22 hours later. The concentration of intact parent test drug was determined by liquid chromatography with tandem mass spectrometry (LC-MS/MS) using a qualified bioanalytical method. Also evaluated was the presence of metabolites M3-M8 (initially identified from in vitro studies) corresponding to shortened versions of the parent peptide conjugated to the fluorescent moiety.

ureter [3] = assay: Fluorescent visualization of the ureter after intravenous administration, mouse model; format: in vivo
Experimental: FIG. 1: Bright field and fluorescence overlay image of a ureter in a living wild type mouse following intravenous administration of about 2000 nanomoles of a fluorescent conjugate (SEQ ID NO:747). Images were obtained 2 hours following administration using a customized fluorescence detection microscope. Left panel: White reflectance image. Right panel: fluorescence overlay.
as §1

[4] = system: rat sciatic and prostate nerves; details: several hours after intravenous administration; cited from earlier work
[5] = system: human resected nerve tissues; details: human tissue, topical administration; cited from earlier work
[6] = in vivo; cited from earlier work
[7] = system: rodent resected nerve tissues; details: rodent tissue, topical administration; cited from earlier work
nerve = details: cited from earlier work; for nerve detection following intravenous administration: rodent models

Compound	time at which fluorescent visualization of the ureter was first observed following conjugate administration (ureter [1]; early observation)	time up to which fluorescent visualization of the ureter was observed following conjugate administration (ureter [1]; extended time course)	detection in urine, number of subjects ([2]; 30-minute time-point, test drug or fluorescent metabolites, five subjects evaluated)	Test Drug (ng/mL) in urine ([2]; Subject 1, 30 min after infusion)	Test Drug (ng/mL) in urine ([2]; Subject 2, 22 hours)	Test Drug (ng/mL) in urine ([2]; Subject 3, 22 hours)	Test Drug (ng/mL) in urine ([2]; Subject 4, 30 min after infusion)	level at 30 min after infusion ([2]; Subject 2, 30 min after infusion) [ng/mL]	level at 30 min after infusion ([2]; Subject 3, 30 min after infusion) [ng/mL]	level at 30 min after infusion ([2]; Subject 5, 30 min after infusion) [ng/mL]	ureter illumination (fluorescence) (ureter [3]; 2 hours following intravenous administration of about 2000 nanomoles (~200 mg/kg))	ureter illumination (fluorescence) (ureter [3]; intravenous, 100 nanomoles to 2000 nanomoles (~10 mg/kg to ~200 mg/kg))	fluorescence in rat sciatic and prostate nerves [4]	fluorescent labeling of resected nerve tissues [5]	half-life in the blood [6] [min]	fluorescent labeling of resected nerve tissues [7]	nerve detection following intravenous administration (nerve)	serum half-life (as measured by serum fluorescence) [6]	half-life of nerve fluorescence (nerve; in vivo)	persistence of fluorescence in tissues (nerve; in vivo)
CC(C)[C@H](NC(=O)[C@H](Cc1ccc(O)cc1)NC(=O)[C@H](Cc1ccc(O)cc1)NC(=O)[C@@H]1CCCN1C(=O)[C@H](CCC(=O)O)NC(=O)[C@H](CCC(=O)O)NC(=O)[C@H](Cc1c[nH]c2ccccc12)NC(=O)[C@@H]1CCCN1C(=O)[C@@H](NC(=O)[C@H](CCC(N)=O)NC(=O)c1ccc2c(c1)C(=O)OC21c2ccc(O)cc2Oc2cc(O)ccc21)C(C)C)C(=O)N[C@H](C(=O)N[C@@H](CCCCN)C(=O)N[C@@H](CCCCN)C(=O)N[C@@H](CO)C(=O)N[C@@H](CO)C(=O)NCC(=O)NCC(N)=O)C(C)C [SEQ ID NO:747, 5-FAM-QVPWEEPYYVVKKSSGG-NH2] (5FAM-QVPWEEPYYVVKKSSGG-NH2)	less than 1 hour	at least 6 hours	detected in four of five subjects	BQL* (BQL: Below Quantitation Limit (10 ng/ml))	BQL (BQL: Below Quantitation Limit (10 ng/ml))	BQL (BQL: Below Quantitation Limit (10 ng/ml))	BQL (BQL: Below Quantitation Limit (10 ng/ml))	11.5	19	10.1	readily illuminated	revealed ureter illumination								
FAM-HNP401: FAM conjugated to the C-terminal cysteine of acetylated HNP401 with GCC linker (Ac-SGQVPWEEPYYVVKKSSGGC-CONH2) (Ac-SGQVPWEEPYYVVKKSSGGC(FAM)-NH2)													observed	fluorescent labeling	15	fluorescent labeling	sensitive nerve detection			
FAM-NP41: carboxyfluorescein (FAM) coupled to the C-terminal lysine of acetylated NP41 (Ac-SHSNTQTLAKAPEHTGK) via a lysinamide linkage (Ac-SHSNTQTLAKAPEHTGK(FAM)-NH2) [reference compound]														fluorescent labeling		fluorescent labeling	sensitive nerve detection	about ten	about 50 minutes	persist at a low level in tissues for hours
